# Results taken from the supplement of paper PMC6757056.
# ± gives the standard deviation of the averaged measurements.
# B1: library; a variant is named by its letters at N, in order (parent)
# chain: GCUGUCACCGGUGCUUGGUACGUUAUAUUCAGCCGGUCUGAUGAGUCUNNNNNNAGACGAAACAGC
# Legend:
# [1] = variants of: B1; assay: FACS-Seq fitted mean relative fluorescence mCherry/BFP without ligand (log10 relative fluorescence); HEK293T overexpressing SLC46A1; higher = higher reporter protein expression; settings: without (6R,S)-folinic acid; ligand present: no
# Outline: (§1)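 Lentivirally transduced HEK293T libraries carried an mCherry reporter with the ribozyme switch and an EF1α-BFP marker. Transduced cells were enriched, then incubated with or without ligand for 48 h and sorted into 6 bins by mCherry/BFP. Genomic DNA from each bin was PCR-amplified, barcoded and sequenced on MiSeq. Fluorescence was the fitted normal mean of log10(mCherry/BFP) bin counts, scaled to five spiked-in control ribozymes.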
# [2] = variants of: B1; assay: normalized RNA/DNA level without ligand (relative to sTRSVctl = 100) (log10 (% of sTRSVctl)); HEK293T overexpressing SLC46A1; higher = less ribozyme self-cleavage, higher mRNA level; settings: without (6R,S)-folinic acid; ligand present: no
# Description: (§2)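 Hammerhead (sTRSV) ribozyme switch libraries with a ligand aptamer grafted on stem I and a randomized N4-6 loop II, cloned into the 3' UTR of mCherry and transiently transfected into HEK293T cells; RNA-Seq 72 h post transfection with ligand added 1 h before transfection; RNA read count / plasmid DNA read count normalized to the non-cleaving sTRSVctl (x100), log10; sequences with >100 DNA reads. FACS-Seq: lentiviral library sorted into 6 bins after 48 h ligand, log-normal fit mean of mCherry/BFP scaled to controls. Printed sequences are partial switch sequences.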
# [3] = variants of: B1; assay: FACS-Seq fitted mean relative fluorescence mCherry/BFP with ligand (log10 relative fluorescence); HEK293T overexpressing SLC46A1; ligand concentration (+) FACS-Seq: 6 mM; higher = higher reporter protein expression; settings: with (6R,S)-folinic acid; ligand present: yes
# Outline: as §1
# [4] = variants of: B1; assay: normalized RNA/DNA level with ligand (relative to sTRSVctl = 100) (log10 (% of sTRSVctl)); HEK293T overexpressing SLC46A1; ligand concentration (+) RNA-Seq: 6 mM; higher = less ribozyme self-cleavage, higher mRNA level; settings: with (6R,S)-folinic acid; ligand present: yes
# Description: as §2
Variant,FACS-Seq fitted mean (log10) [1],normalized RNA/DNA level without ligand (log10) [2],FACS-Seq fitted mean (log10) [3],normalized RNA/DNA level with ligand (log10) [4]
GCUGUCACCGGUGCUUGGUACGUUAUAUUCAGCCGGUCUGAUGAGUCUUCAUAAAGACGAAACAGC,0.276 ± 0.048,1.935 ± 0.014,0.514 ± 0.034,1.96 ± 0.03
GCUGUCACCGGUGCUUGGUACGUUAUAUUCAGCCGGUCUGAUGAGUCUUCCAAGAGACGAAACAGC,0.322 ± 0.11,1.815 ± 0.0067,0.489 ± 0.12,1.992 ± 0.006
GCUGUCACCGGUGCUUGGUACGUUAUAUUCAGCCGGUCUGAUGAGUCUCCAUGUAGACGAAACAGC,0.369 ± 0.014,2.035 ± 0.018,0.222 ± 0.16,2.03 ± 0.04
GCUGUCACCGGUGCUUGGUACGUUAUAUUCAGCCGGUCUGAUGAGUCUCCAGUGAGACGAAACAGC,0.445 ± 0.16,2.029 ± 0.0086,0.251 ± 0.16,2.022 ± 0.0066
GCUGUCACCGGUGCUUGGUACGUUAUAUUCAGCCGGUCUGAUGAGUCUACCAAAAGACGAAACAGC,0.632 ± 0.15,2.018 ± 0.012,0.52 ± 0.14,2.017 ± 0.011
GCUGUCACCGGUGCUUGGUACGUUAUAUUCAGCCGGUCUGAUGAGUCUGCAUAGAGACGAAACAGC,0.335 ± 0.0092,1.966 ± 0.017,0.466 ± 0.13,2.02 ± 0.053
GCUGUCACCGGUGCUUGGUACGUUAUAUUCAGCCGGUCUGAUGAGUCUGCAUAUAGACGAAACAGC,-0.109 ± 0.058,1.97 ± 0.029,-0.0866 ± 0.33,2 ± 0.045
GCUGUCACCGGUGCUUGGUACGUUAUAUUCAGCCGGUCUGAUGAGUCUGCAUAAAGACGAAACAGC,0.2764 ± 0.00097,1.968 ± 0.011,0.171 ± 0.029,2 ± 0.027
GCUGUCACCGGUGCUUGGUACGUUAUAUUCAGCCGGUCUGAUGAGUCUACAGUGAGACGAAACAGC,0.32076 ± 2.8e-05,1.732 ± 0.0061,0.629 ± 0.16,2 ± 0.028
GCUGUCACCGGUGCUUGGUACGUUAUAUUCAGCCGGUCUGAUGAGUCUGCAUUAAGACGAAACAGC,0.539 ± 0.07,1.995 ± 0.011,0.484 ± 0.1,2.03 ± 0.028
GCUGUCACCGGUGCUUGGUACGUUAUAUUCAGCCGGUCUGAUGAGUCUACAUCAAGACGAAACAGC,0.659 ± 0.066,2.055 ± 0.0034,0.448 ± 0.075,2.05 ± 0.035
GCUGUCACCGGUGCUUGGUACGUUAUAUUCAGCCGGUCUGAUGAGUCUACAUCCAGACGAAACAGC,0.096 ± 0.15,2.08 ± 0.018,0.0523 ± 0.006,2.03 ± 0.025
GCUGUCACCGGUGCUUGGUACGUUAUAUUCAGCCGGUCUGAUGAGUCUUCAUUGAGACGAAACAGC,0.0972 ± 0.14,1.876 ± 0.0017,0.304 ± 0.23,2 ± 0.05
GCUGUCACCGGUGCUUGGUACGUUAUAUUCAGCCGGUCUGAUGAGUCUUCAUGCAGACGAAACAGC,0.558 ± 0.075,2.038 ± 0.01,0.485 ± 0.15,2.04 ± 0.031
GCUGUCACCGGUGCUUGGUACGUUAUAUUCAGCCGGUCUGAUGAGUCUUCCACGAGACGAAACAGC,0.0965 ± 0.072,1.921 ± 0.0076,0.23 ± 0.091,2.01 ± 0.05
GCUGUCACCGGUGCUUGGUACGUUAUAUUCAGCCGGUCUGAUGAGUCUACAUAAAGACGAAACAGC,-0.288 ± 0.045,1.9664 ± 0.00019,-0.603 ± 0.1,1.996 ± 0.019
GCUGUCACCGGUGCUUGGUACGUUAUAUUCAGCCGGUCUGAUGAGUCUACAUACAGACGAAACAGC,0.125 ± 0.085,1.992 ± 0.0001,0.387 ± 0.078,1.99 ± 0.021
GCUGUCACCGGUGCUUGGUACGUUAUAUUCAGCCGGUCUGAUGAGUCUGCAUGAAGACGAAACAGC,0.25 ± 0.038,2.0186 ± 0.00041,0.168 ± 0.097,2.081 ± 0.01
GCUGUCACCGGUGCUUGGUACGUUAUAUUCAGCCGGUCUGAUGAGUCUGCCAAAAGACGAAACAGC,0.458 ± 0.071,2.02 ± 0.017,0.495 ± 0.12,2.029 ± 0.0061
GCUGUCACCGGUGCUUGGUACGUUAUAUUCAGCCGGUCUGAUGAGUCUUCAGUCAGACGAAACAGC,0.427 ± 0.2,2.083 ± 0.016,0.298 ± 0.2,2.013 ± 0.015
GCUGUCACCGGUGCUUGGUACGUUAUAUUCAGCCGGUCUGAUGAGUCUACAUGGAGACGAAACAGC,0.326 ± 0.041,1.916 ± 0.0031,0.203 ± 0.12,2.04 ± 0.046
